Substitutions are numbered along the chain they refer to. Numbers in names are those of the source. Read-outs that look alike come from different tables or passages of the source.
What was measured:
[1] = target: the molecule itself; test: reducing SDS-PAGE and immunoblot
non-reducing SDS-PAGE = target: the molecule itself; test: non-reducing SDS-PAGE
[2] = target: the molecule itself
[3] = target: the molecule itself; test: reducing SDS-PAGE and immunoblot of a membrane preparation
[4] = target: the molecule itself; test: non-reducing SDS-PAGE and Western blot
4M urea SDS-PAGE = target: the molecule itself; test: 4M urea SDS-PAGE

B1: PfP2-HA of P. falciparum 3D7 P2-HA glmS transgenic parasites (natural protein, Plasmodium falciparum 3D7, UniProt O00806 1-112, looked up)
chain: MAMKYVAAYLMCVLGGNENPSTKEVKNVLGAVNADVEDEVLNNFIDSLKGKSCHELITDGLKKLQNIGGGVAAAPAGAAAVETAEAKKEDKKEEKKEEEEEEEDDLGFSLFG
stoichiometry N [1]: 4

B2: 6x His tag recombinant PfP2 (P. falciparum 60S stalk ribosomal protein P2) (natural protein, Plasmodium falciparum 3D7, UniProt O00806 1-112, looked up)
chain: B1 chain
stoichiometry N (non-reducing SDS-PAGE): 4

B3: LAFS-induced alkylated rec. PfP2 tetramer (natural protein, Plasmodium falciparum 3D7, UniProt O00806 1-112, looked up)
chain: B1 chain
modifications: cysteines alkylated using iodoacetamide (IAA) after reduction with DTT
stoichiometry N [2]: 4

B4: PfP2 of wild type P. falciparum 3D7 parasites (natural protein, UniProt O00806 1-112, looked up)
chain: B1 chain
modifications: 11th methionine (Met11) oxidized in the parasite membrane preparation (ESI MS/MS)
stoichiometry N [1]: 4 | stoichiometry N [3]: 2

B5: PfP2C12A (Clone 1, C12A) (natural protein, Plasmodium falciparum 3D7, UniProt O00806 1-112, looked up)
chain: B1 chain with C12A
stoichiometry N [4]: 2

B6: LAFS-induced denaturation-resistant rec. PfP2 tetramer (natural protein, Plasmodium falciparum 3D7, UniProt O00806 1-112, looked up)
chain: B1 chain
modifications: 11th methionine (Met11) oxidized; Met11 S-O-S Met11 linkages between chains as the paper proposes
stoichiometry N (4M urea SDS-PAGE): 4

Reference: publication PMC11079477 (iScience, 2024)
